Here are results for two molecules from PMC12428753, “Heparanase-Neutralizing Monoclonal Antibody (mAb A54) Attenuates Tumor Growth and Metastasis” (Cells, 2025).

The target in experiment [1] is T1, mature heparanase (active heterodimer of 8 kDa and 50 kDa subunits) (human).
T1 sequence (Q9Y251 whole entry, looked up): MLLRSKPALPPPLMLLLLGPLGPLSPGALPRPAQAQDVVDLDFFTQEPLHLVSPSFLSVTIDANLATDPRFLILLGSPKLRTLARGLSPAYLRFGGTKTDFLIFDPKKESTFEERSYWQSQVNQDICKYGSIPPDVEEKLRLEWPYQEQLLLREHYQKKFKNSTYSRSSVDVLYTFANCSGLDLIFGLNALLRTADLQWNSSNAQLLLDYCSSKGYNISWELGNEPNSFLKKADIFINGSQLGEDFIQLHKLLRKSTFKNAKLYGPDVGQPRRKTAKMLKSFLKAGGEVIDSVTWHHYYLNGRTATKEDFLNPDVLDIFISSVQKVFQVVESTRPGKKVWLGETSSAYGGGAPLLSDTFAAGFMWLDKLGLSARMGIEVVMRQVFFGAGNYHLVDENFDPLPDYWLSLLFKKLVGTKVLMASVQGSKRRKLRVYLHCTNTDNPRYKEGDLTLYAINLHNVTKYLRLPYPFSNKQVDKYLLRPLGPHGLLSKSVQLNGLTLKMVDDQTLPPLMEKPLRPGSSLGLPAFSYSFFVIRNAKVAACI

The target in experiment [2] is T2, latent 65 kDa heparanase (Homo sapiens, UniProt Q9Y251).
T2 construct: heparanase, human, unprocessed 65 kDa latent proenzyme on one chain ('full-length latent heparanase'); also called Hpa65; pro-heparanase; source: recombinant
The experiment in a line: SPR; Biacore analysis; orientation and conditions not told. Particulars: both partners purified. In general terms: SPR reads the build-up and loss of mass on a sensor chip optically.

Experiment [3] deals with T2, latent 65 kDa heparanase. Kind of experiment: ELISA; 96-well microtiter plate coated with latent 65 kDa heparanase (Hpa65); purified mAb A54 or control mouse IgG added at the indicated concentrations. Particulars: both partners purified. (In general: In an ELISA, binding on a coated surface is turned into a signal by an enzyme label.)
Experiment [4] concerns the target T3, heparanase protein (form not stated) (human) (UniProt Q9Y251).
T3 sequence: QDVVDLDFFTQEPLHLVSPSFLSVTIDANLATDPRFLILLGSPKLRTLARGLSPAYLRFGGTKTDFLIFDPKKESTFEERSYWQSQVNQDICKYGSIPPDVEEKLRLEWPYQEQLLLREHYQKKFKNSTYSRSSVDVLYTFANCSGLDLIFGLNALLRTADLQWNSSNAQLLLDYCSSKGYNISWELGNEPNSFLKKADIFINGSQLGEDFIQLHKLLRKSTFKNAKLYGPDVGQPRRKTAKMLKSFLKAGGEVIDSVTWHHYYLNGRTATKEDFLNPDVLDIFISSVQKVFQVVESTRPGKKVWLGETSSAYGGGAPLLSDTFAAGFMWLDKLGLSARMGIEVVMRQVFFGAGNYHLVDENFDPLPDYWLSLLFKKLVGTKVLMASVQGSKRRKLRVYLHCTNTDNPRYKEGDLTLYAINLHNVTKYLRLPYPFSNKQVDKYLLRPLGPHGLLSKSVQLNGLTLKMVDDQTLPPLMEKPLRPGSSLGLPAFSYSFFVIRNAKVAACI
Kind of experiment: not stated; binding affinity of the humanized vs. the mouse A54 antibody for the heparanase protein; service by GenScript.

B1: A54 anti-heparanase monoclonal antibody (purified from hybridoma A54) (antibody, V domains shown)
VH: QVQLQQSGAELAKPGASVRMSCKASGYTFTNYWMHWVKQRPGQGLEWIGYINPTTGYTEYNQKFKDKATLTADKSSSTAYMQLSSLTSEDSAVYYCARGGAGYDYDEDYAMDYWGQGTSVTVSS
VL: DIVLTQSPASLAVSLGQRATISCRASESVEYFGTSYMNWYQQKPGQPPKLLIYLASILESGIPARFSGSGSGTDFTLNIHPVEEEDAATYYCQQSNEDPYTFGGGTKLEIK
notes: VH of A54; the Fab heavy chain is in the deposited structure PDB 9S8W; mouse IgG1 heavy chain constant region (subclass found with an isotyping kit); CH1 is also in PDB 9S8W; VL of A54; the Fab light chain is in the deposited structure PDB 9S8W; mouse kappa light chain constant region (IgG1-Kappa is stated for the recombinant version); also in PDB 9S8W; Mouse IgG1; whole IgG; Only the Fab part is …
In turn, B1 had an inhibition of heparanase enzymatic activity by hybridoma A54 supernatant (release of sulfate-labeled HS degradation fragments from 35S-labeled ECM) in experiment [1] of 80%. Moreover, the dissociation constant (Kd) in experiment [2] is 3.18 nM. This molecule registered an IC50 in experiment [3] of 0.2 nM.

B2: recombinant A54 mAb (antibody, V domains shown)
VH: B1 VH
VL: B1 VL
The molecule B2 had a Kd in experiment [4] of 1 nM.

One may read the Kd as the free concentration of one partner at which half of the binding sites on the other are occupied at equilibrium, for simple one-to-one binding. Low values mean a tighter complex, high ones a looser complex. In general, IC50 refers to the concentration at which inhibition is half-maximal. The low end stands for greater potency in that assay, the high end for weaker potency in that assay.
